Kd data for two molecules are collected here from article PMC6525185, “6mA-DNA-binding factor Jumu controls maternal-to-zygotic transition upstream of Zelda”.

For this data set, the target named is T1, Jumu FKH domain (SPR) (UniProt Q7K214 391-540).
T1 sequence: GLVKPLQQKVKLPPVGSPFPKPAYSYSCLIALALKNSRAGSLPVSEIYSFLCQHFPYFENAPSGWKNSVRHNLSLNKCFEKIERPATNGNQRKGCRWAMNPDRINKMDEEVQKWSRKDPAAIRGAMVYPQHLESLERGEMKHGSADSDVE
Kind of data set: SPR; EMSA: 20 mM HEPES pH 7.5, 50 mM KCl, 1 mM DTT (printed DDT), 1 mM EDTA, 0.01 mg/ml BSA, 2% Ficoll 400, 5 ng/µl poly(dI:dC), 25 °C, 15 nM probe; SPR: 20 mM Tris-Cl pH 8.0, 150 mM NaCl, 0.005% Tween 20, 25 °C; pull-down: 50 mM Tris-HCl pH 8, 150 mM NaCl, 1 mM DTT, 0.25% NP40. The note with it: protein: recombinant; label: 5' and 3' FAM (EMSA); biotin (SPR, pull-down).

B1: 6mA-dsDNA probe (dsDNA)
DNA 1: GCTATTTATGCGTTCTTTTCTTCTTTCTCATTTCTATATTTATAGTGTGTGTGTGTGTGTGGGTGTGTTTGTTGTATGTGGTTAAATATGCTTCGTTTTTGTTTAATTGGTTTTTGTTTTTGTGATGATCATGGG
DNA 2: CCCATGATCATCACAAAAACAAAAACCAATTAAACAAAAACGAAGCATATTTAACCACATACAACAAACACACCCACACACACACACACACTATAAATATAGAAATGAGAAAGAAGAAAAGAACGCATAAATAGC
modifications: N6-methyladenine in place of dA, by PCR with dm6ATP (both strands; primer-derived adenines probably unmodified, primers not given)
For B1, the Kd worked out at 2.37 µM.

B2: dA-dsDNA probe (dsDNA)
DNA 1: B1 DNA 1
DNA 2: B1 DNA 2
For B2, the Kd stood at 42.1 µM.

Usually Kd stands for the equilibrium constant for the complex coming apart.
